Reference: patent publication US20160311911A1, “METHODS FOR TREATING ALLERGIC AIRWAY INFLAMMATION” (priority 2015, published 2016)

How the values were obtained:
[1] = biological target: TLR4 on TLR4^Hi HEK 293 cells (TLR4^Hi, CD14^Null, MD2^Null; InvivoGen) (UniProt O00206); assay: flow cytometry; HEK 293 cells incubated with 100 ug/mL BODIPY-RWPE for 30 minutes on ice, then washed
[2] = biological target: TLR4, CD14 and MD2 on TCM^Hi HEK 293 cells (TLR4^Hi, CD14^Hi, MD2^Hi; InvivoGen) (UniProt O00206); assay: as above
Sequence of TLR4, CD14 and MD2 on TCM^Hi HEK 293 cells (TLR4^Hi, CD14^Hi, MD2^Hi; InvivoGen) (O00206 24-839 limits assumed, chain 1 of 3): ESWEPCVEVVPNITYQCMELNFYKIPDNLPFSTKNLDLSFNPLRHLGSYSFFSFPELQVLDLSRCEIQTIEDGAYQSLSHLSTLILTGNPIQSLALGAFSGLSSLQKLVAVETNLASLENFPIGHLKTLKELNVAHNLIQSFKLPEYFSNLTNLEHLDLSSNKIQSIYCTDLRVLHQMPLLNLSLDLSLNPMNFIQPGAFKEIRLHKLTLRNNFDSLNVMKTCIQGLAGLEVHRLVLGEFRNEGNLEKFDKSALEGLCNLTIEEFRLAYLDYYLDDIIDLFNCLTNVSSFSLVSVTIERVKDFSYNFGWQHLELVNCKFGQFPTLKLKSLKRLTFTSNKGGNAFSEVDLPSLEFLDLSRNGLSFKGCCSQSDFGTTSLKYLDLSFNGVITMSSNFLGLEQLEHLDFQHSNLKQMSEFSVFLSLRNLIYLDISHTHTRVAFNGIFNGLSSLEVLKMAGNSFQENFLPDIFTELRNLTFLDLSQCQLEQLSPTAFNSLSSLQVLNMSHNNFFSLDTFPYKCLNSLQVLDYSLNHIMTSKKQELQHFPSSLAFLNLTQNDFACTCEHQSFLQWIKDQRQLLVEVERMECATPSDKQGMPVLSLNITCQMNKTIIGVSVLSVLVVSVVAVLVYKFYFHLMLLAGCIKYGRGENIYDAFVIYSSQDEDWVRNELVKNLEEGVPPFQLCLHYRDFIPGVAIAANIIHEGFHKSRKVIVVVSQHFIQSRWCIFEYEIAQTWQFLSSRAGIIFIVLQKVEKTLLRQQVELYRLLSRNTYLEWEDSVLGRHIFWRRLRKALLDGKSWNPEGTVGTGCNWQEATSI
Sequence of TLR4, CD14 and MD2 on TCM^Hi HEK 293 cells (TLR4^Hi, CD14^Hi, MD2^Hi; InvivoGen) (P08571 20-345 limits assumed, chain 2 of 3, further chain): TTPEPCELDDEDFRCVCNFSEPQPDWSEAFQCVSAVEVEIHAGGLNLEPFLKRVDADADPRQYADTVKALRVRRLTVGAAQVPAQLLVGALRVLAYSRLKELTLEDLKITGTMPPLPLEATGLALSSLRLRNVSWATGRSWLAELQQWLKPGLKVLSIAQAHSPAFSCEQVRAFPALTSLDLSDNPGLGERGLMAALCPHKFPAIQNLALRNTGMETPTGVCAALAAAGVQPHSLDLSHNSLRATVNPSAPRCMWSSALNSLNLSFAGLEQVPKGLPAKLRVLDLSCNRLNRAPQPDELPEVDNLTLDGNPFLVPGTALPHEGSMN
Sequence of TLR4, CD14 and MD2 on TCM^Hi HEK 293 cells (TLR4^Hi, CD14^Hi, MD2^Hi; InvivoGen) (Q9Y6Y9 19-160 limits assumed, chain 3 of 3, further chain): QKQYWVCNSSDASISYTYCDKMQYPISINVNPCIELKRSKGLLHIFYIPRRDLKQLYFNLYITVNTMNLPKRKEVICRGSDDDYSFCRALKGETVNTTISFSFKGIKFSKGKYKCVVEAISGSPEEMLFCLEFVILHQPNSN

Sequence of TLR4 on TLR4^Hi HEK 293 cells (TLR4^Hi, CD14^Null, MD2^Null; InvivoGen) (O00206 24-839 limits assumed): as the sequence (O00206 24-839 limits assumed, chain 1 of 3) above

BODIPY-labeled ragweed pollen extract (RWPE)
BODIPY-RWPE staining (% by FACS) [1]: < 3% | BODIPY-RWPE staining (% by FACS) [2]: 12.9%
